# Key:
# Assay in all cases: HMF sulfoconjugation assay
# Details in all cases: other: catalytic efficiency of HMF sulfoconjugation; pH 7.4
# O=Cc1ccc(CO)o1 [1] = system: T1, O=Cc1ccc(CO)o1; format: biochemical, human
# T1 construct: made in house; host or cells: Salmonella typhimurium TA1538 (cytosolic fraction, not purified)
# Description: (§1) Cytosolic fractions containing individual SULT forms were prepared from transgenic S. typhimurium TA1538. Table S1 in the Supplementary Material provides a summary of the thirty SULTs used in the current study together with references describing the cloning of the respective S. typhimurium TA1538 strains. The expressed SULT forms are denoted with the prefixes h, m and r for human, mouse and rat enzymes, respectively. Bacteria were grown in Luria Broth medium containing ampicillin (100 µg/ml) by stirring for 8 h at 200 revolutions/min at 37 °C. The bacterial suspensions were centrifuged at 5,000 g for 10 min. […] The protein concentrations were determined according to a bicinchoninic acid (BCA) assay protocol. […]
# (§2) The reactions were conducted in mixtures of 100 µl containing 25–200 µg protein, 50 mM potassium phosphate buffer (pH 7.4), 5 mM MgCl2, 50 µM PAPS and different concentrations of HMF at 37 °C. Preliminary experiments ensured that measurements were recorded under ‘linear’ conditions, i.e., doubling of protein concentration or incubation time was doubling the amount of sulfate ester formed. […]
# (§3) SMF concentrations of the clear supernatants were analyzed by UPLC-MS/MS. The protocol was adapted from the quantification of SMF in plasma samples of HMF-treated mice (Monien et al. [2009]). […]
# O=Cc1ccc(CO)o1 [2] = system: T2, O=Cc1ccc(CO)o1; format: biochemical, mouse
# T2 construct: made in house; host or cells: Salmonella typhimurium TA1538 (cytosolic fraction, enzyme not purified)
# Description: as §1, §2, §3
# O=Cc1ccc(CO)o1 [3] = system: T2, O=Cc1ccc(CO)o1; format: biochemical, rat
# Description: as §1, §2, §3
# Chain of mSult1b1 (Mus musculus) (chain, as listed by the source): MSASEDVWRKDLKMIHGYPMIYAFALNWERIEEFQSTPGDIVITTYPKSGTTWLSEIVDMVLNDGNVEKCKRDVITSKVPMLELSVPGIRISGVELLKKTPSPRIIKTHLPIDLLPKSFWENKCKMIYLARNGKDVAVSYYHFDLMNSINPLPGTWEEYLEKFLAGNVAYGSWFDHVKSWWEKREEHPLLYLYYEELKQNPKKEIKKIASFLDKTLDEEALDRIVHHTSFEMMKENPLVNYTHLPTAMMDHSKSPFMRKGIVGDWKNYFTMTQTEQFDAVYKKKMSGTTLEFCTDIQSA
# Chain of hSULT1B1 (Homo sapiens) (chain, as listed by the source): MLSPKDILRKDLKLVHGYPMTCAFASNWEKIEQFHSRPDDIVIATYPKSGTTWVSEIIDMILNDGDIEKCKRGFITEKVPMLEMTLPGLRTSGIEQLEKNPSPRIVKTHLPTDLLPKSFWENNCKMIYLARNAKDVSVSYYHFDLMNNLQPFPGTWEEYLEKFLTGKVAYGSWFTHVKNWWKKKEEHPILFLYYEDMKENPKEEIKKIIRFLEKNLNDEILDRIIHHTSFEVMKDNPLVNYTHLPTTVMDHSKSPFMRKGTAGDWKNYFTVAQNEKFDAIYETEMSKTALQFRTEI
# Chain of rSult1b1 (Rattus norvegicus) (chain, as listed by the source): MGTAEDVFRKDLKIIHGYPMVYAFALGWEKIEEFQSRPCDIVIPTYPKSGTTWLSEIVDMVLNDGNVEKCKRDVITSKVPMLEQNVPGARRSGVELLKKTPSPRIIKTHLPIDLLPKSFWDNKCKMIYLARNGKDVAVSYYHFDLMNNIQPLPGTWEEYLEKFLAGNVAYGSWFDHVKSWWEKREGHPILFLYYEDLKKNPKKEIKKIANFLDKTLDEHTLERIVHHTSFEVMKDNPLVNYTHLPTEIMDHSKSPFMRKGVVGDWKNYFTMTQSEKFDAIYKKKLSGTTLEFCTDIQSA
substance,measurement,setting,value
hSULT1B1 (Homo sapiens),kcat/Km,O=Cc1ccc(CO)o1 [1],0.31 M⁻¹ s⁻¹
mSult1b1 (Mus musculus),kcat/Km,O=Cc1ccc(CO)o1 [2],0.36 M⁻¹ s⁻¹
rSult1b1 (Rattus norvegicus),kcat/Km,O=Cc1ccc(CO)o1 [3],0.09 M⁻¹ s⁻¹
